Blank lines part the entries; values can stand above or below the substance they belong to.
Tests used:
[1] = molecular target: CELSR1 [human (endogenous in Flp-In-T-REx-293)]; assay: BioID proximity labeling (mass spectrometry); conditions: +Wnt3a
[2] = molecular target: Notch2 [human (endogenous in Flp-In-T-REx-293)]; assay: BioID proximity labeling (mass spectrometry); conditions: +Wnt3a
CK1ε = assay: BioID proximity labeling (mass spectrometry); conditions: +Wnt3a
[3] = molecular target: Lip-NKD-HisC (human (identical sequence in mouse and human)) (UniProt Q969G9); assay: aggregation and co-aggregation assay read by PAGE; purified proteins in 15 mM acetate, 150 mM NaCl, pH 5.0 mixed in different ratios; after 10 min 1 M Tris-HCl pH 8.0 added to 200 mM; after 20 min boiled 10 min in LDS sample buffer; PAGE under denaturing and reducing conditions
Chain of Lip-NKD-HisC (human (identical sequence in mouse and human)) (Q969G9 whole entry): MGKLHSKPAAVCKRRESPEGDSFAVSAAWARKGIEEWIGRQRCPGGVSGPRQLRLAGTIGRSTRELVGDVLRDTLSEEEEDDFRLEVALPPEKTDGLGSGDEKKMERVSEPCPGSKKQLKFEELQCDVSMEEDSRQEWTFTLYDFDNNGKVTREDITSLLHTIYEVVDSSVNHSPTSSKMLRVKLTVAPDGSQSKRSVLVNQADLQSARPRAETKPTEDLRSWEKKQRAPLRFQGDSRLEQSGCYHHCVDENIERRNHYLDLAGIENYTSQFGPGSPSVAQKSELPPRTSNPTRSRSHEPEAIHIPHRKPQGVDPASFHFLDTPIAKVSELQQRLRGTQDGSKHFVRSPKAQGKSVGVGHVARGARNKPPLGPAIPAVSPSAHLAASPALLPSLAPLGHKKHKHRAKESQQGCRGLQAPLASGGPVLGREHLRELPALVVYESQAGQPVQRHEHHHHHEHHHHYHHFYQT

response (unweighted spectral counts) [1]: 1
Substance: Nkd1-BirA* mutant G2A [murine] / CELSR1 [human (endogenous in Flp-In-T-REx-293)] chain 1 G2A

response (unweighted spectral counts) [2]: 1
Substance: Nkd1-BirA* mutant G2A [murine] / Notch2 [human (endogenous in Flp-In-T-REx-293)] chain 1 G2A

response (unweighted spectral counts) (CK1ε): 8
Substance: Nkd1-BirA* (from UniProt Q99MH6) G2A

molecules per core (molecules per core) [3]: < 5
Substance: MBP-Axin1-HisC (from UniProt O15169 1-862) (domain or fragment)

stoichiometry N [3]: 10
Substance: Lip-NKD-HisC (from UniProt Q969G9 1-470) (domain or fragment)

— paper PMC7581431
